Results as given in the nanobody polyreactivity screen of Harvey et al. (2022).

Test: yeast display, Sf9 membrane polyspecificity reagent, FACS + sequencing; frameworks hold sequencing errors
How it was run: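 In a synthetic yeast display library (Saccharomyces cerevisiae BJ5465), nanobody expression was induced with galactose for 36–48 hours. FACS gates were set low and high (top ~1%) using anti-HA fluorescence for expression and streptavidin fluorescence for binding of the Sf9 membrane reagent. Each polyreactivity label is drawn from the gate of origin.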

Which “polyreactivity (PSR sort gate)” value does the source give for “QVQLVESGGGLVQAGGSLRLSCAASGSTFKYYAKGWYRQAPGKERELVAAISASGGTTYYADSVKGRFTISRDNAKNTVYLQMNSLKPEDTAVYYCAARYLTTFSRTDMEYWGQGTQVTVSS” here?
Its value is “low polyreactivity”.

Which “polyreactivity (PSR sort gate)” value does the source give for “QVQLVESGGGLVQAGGSLRLSCAASGSTFKYYSIGWYRQAPGKERELVASITGRTVGTYYADSVKGRFTISRDIAKNTVYLQMNSLKPEDTAVFYCATDLYWDYPDKGYTVSWWYGYWGQGTQVTVSS” here?
The value was “low polyreactivity”.

With “QVQLVESGGGLVQAGGSLRLSCAASGSTFKYYTMGWYIQAPGKERELVAAITWRGGSTYYADSVKGRFTISRDNAKNTVYLQMNSLKPEDTAVYYCNVLQRYGASRYDYWGQGTQVTVSS” as the sequence, how does the “polyreactivity (PSR sort gate)” value read?
The value was “high polyreactivity”.

For “QVQLVESGGGLVQAGGSLRLSCAASGSTFKYYTMGWYIQAPGKERELVAGITLSGTTTYYADSEKGRFTISRDNAKNTVYLQMNSLKPEDTAVYYCAADYYHDFNAYYYWGQGTQVTVSS”, which “polyreactivity (PSR sort gate)” value is on record?
Its value is “low polyreactivity”.

Which “polyreactivity (PSR sort gate)” value does the source give for “QVQLVESGGGLVQAGGSLRLSCAASGSTFLAYAMGWYRQAPGKERELVAAISSSGGRPYYADSVKGRFTISRDYAKNTVYLQMNSLNPEDTAVYYCAARYKNRGGFGYWGQGTRVTVSS” here?
The value was “high polyreactivity”.

For “QVQLVESGGGLVQAGGSLRLSCAASGSTFLFNGMGWYRQAPGKERELVAAISRSGGRTYYADSVKGRFTISRDNAKNTVYLQMNSLKPEDTAVYYCAAKYRLSGGYGVDYWGQGTQVTVSS”, which “polyreactivity (PSR sort gate)” value is on record?
Its value is “high polyreactivity”.

For “QVQLVESGGGLVQAGGSLRLSCAASGSTFLGYVMGWSRQAPGKERELVAAITRSGGRTYYADSVKGRFTISRDNAKNTVYLQMTSLNPEDTAVYYCAALRGPSFHGYGYWGQGTQVTVSS”, which “polyreactivity (PSR sort gate)” value is on record?
The value was “high polyreactivity”.

For “QVQLVESGGGLVQAGGSLRLSCAASGSTFLKYTMGWYRQAPGKDRELVAGITRSSGSTYYADSVKGRFTISRDNAKNTVYLHMNSLKPEDTAVYYCAATVYLYTDLAYYWYGYWGQGTQVTVAS”, which “polyreactivity (PSR sort gate)” value is on record?
The value was “high polyreactivity”.

For “QVQLVESGGGLVQAGGSLRLSCAASGSTFLLYAMGWYRQAPGKERELVATISWGGDGTYYADSVKGRFTISRDHAKNTDYLQMNSLKPDDTAVYDCAAQSYLVQFYFLYYYWGQGTQVTVSS”, which “polyreactivity (PSR sort gate)” value is on record?
Its value is “low polyreactivity”.

With “QVQLVESGGGLVQAGGSLRLSCAASGSTFLRNAMGWYRQAPGKERELVAAISLGSGSTYYADSVKGRFTISRDNAKNTVYLQMNSLKPEDTAVYYCAADVSRWLDYGYDYWGQVTQVTVSS” as the sequence, how does the “polyreactivity (PSR sort gate)” value read?
Its value is “low polyreactivity”.

For “QVQLVESGGGLVQAGGSLRLSCAASGSTFLRYAMGWYRQAPGKERELVATISRCDDGTYYADSVKGRFKISRDNEKNTVFLQMNSLKPEDNAVYYCDARSWYLYYYWGQGTQVTVSS”, which “polyreactivity (PSR sort gate)” value is on record?
The value was “low polyreactivity”.

Which “polyreactivity (PSR sort gate)” value does the source give for “QVQLVESGGGLVQAGGSLRLSCAASGSTFLSNAMGWYRQAPGKERELVAAITIGGSTNYADSVKGRFTISRDNAKNTVYLQMNSLKPEDTAFYFCAADWYYDYAELTRDYDYWGQGTQVTVSS” here?
Its value is “low polyreactivity”.

With “QVQLVESGGGLVQAGGSLRLSCAASGSTFLTNAMGWYRQAPGKERELGAAITWSTGSTYYADSVKGRFTISRDNAKNTVYLQMNSLKPEDTAVYYCNARSEVSYWWGGYWGQGTQVTVSS” as the sequence, how does the “polyreactivity (PSR sort gate)” value read?
Its value is “low polyreactivity”.

With “QVQLVESGGGLVQAGGSLRLSCAASGSTFLTNAMGWYRQAPGKERELVAAITWSGTSTYADSVKGRFTISRDNAKNTVYLQMNSLKPDDTAVYYCAAPILSFPSPYVQYDYWGQGTQVTVSS” as the sequence, how does the “polyreactivity (PSR sort gate)” value read?
The value was “low polyreactivity”.

Which “polyreactivity (PSR sort gate)” value does the source give for “QVQLVESGGGLVQAGGSLRLSCAASGSTFLTNTMGWYRQAPGKERELVAAITLRGGRTYYADSVKGRFTISRDNAKNTVYLQMNSLKPEDTAVYYCNARNYYYPSDRDYWGQGTQVTVSS” here?
Its value is “low polyreactivity”.

With “QVQLVESGGGLVQAGGSLRLSCAASGSTFLVNAMGWYRQAPGKERELVAAITSGGDTNYADSVKGRFTISHDNAKNTVYLQMNSLKPEDTEVYYCATDYFNYRYFDFRWYYYWGQGTQVTVSS” as the sequence, how does the “polyreactivity (PSR sort gate)” value read?
The value was “high polyreactivity”.
